The source of these data is patent publication US11396552 (DIABETES FREE, dated 2022).

Changes are numbered by the printed parent chain.

B1: PG102 wild-type recombinant antibody (antibody, human IgG4 S228P, kappa, V domains shown)
VH: QVKLQESGPGLVKPSETLSITCTVSGFSLSRYSVYWIRQPPGKGPEWMGMMWGGGSTDYSTSLKSRLTISKDTSKSQVSLKMNSLRTDDTAMYYCVRTDGDYWGQGTTVTVSS
VL: ELQLTQSPLSLPVTLGQPASISCRSSQSLANSNGNTYLHWYLQRPGQSPRLLIYKVSNRFSGVPDRFSGSGSGTDFTLKISRVEAEDVGVYYCSQSTHVPWTFGGGTKLEIKR
notes: Human IgG4pro(deltaK) heavy, kappa light; also called PG102_Wt; PG102 wt
B2: PG102_Var7 (antibody, human IgG4 S228P, kappa, V domains shown)
VH: QVQLQESGPGLVKPSQTLSLTCTVSGFSLSRYSVYWVRQPPGKGLEWIGMMWGGGSTDYNPSLKSRLTISKDTSKSQVSLKLSSLTAADTAVYYCVRTDGDYWGQGTLVTVSS
VL: B1 VL with N31S, N33Q
notes: IgG4pro(deltaK)/kappa; also called FFP104_Var7
B3: PG102_Var8 (antibody, human IgG4 S228P, kappa, V domains shown)
VH: QVQLVESGGGLVKPGGSLRLSCAVSGFSLSRYSVYWIRQAPGKGLEWMGMMWGGGSTDYSTSVKGRFTISKDNAKTSVYLQMSSLRAEDTAVYYCVRTDGDYWGQGTLVTVSS
VL: B1 VL with N31S, N33Q
notes: IgG4pro(deltaK)/kappa; also called FFP104_Var8
B4: PG102_Var5 (antibody, human IgG4 S228P, kappa, V domains shown)
VH: B1 VH with K3Q, N83S, R86T, T87A, D88A, M92V, T108L
VL: B1 VL with N31S, N33Q
notes: IgG4pro(deltaK)/kappa; also called FFP104_Var5
B5: PG102_Var14 (antibody, human IgG4 S228P, kappa, V domains shown)
VH: B2 VH with Q16E, L20I, I48M, N60S, P61T, L82M
VL: B1 VL with E1D, L2I, Q3V, L4M, L15P, N31S, N33Q, R44K
notes: IgG4pro(deltaK)/kappa; also called FFP104_Var14
B6: PG102_Var15 (antibody, human IgG4 S228P, kappa, V domains shown)
VH: B2 VH
VL: B1 VL with E1D, L2I, Q3V, L4M, L15P, N31S, N33Q, R44K
notes: IgG4pro(deltaK)/kappa; also called FFP104_Var15
B7: PG102_Var3 (antibody, human IgG4 S228P, kappa, V domains shown)
VH: B2 VH
VL: B1 VL with N31S, N33S
notes: IgG4pro(deltaK)/kappa; also called FFP104_Var3
B8: PG102_Var11 (antibody, human IgG4 S228P, kappa, V domains shown)
VH: B2 VH
VL: B1 VL with N31D, N33Q
notes: IgG4pro(deltaK)/kappa; also called FFP104_Var11
B9: PG102_Var4 (antibody, human IgG4 S228P, kappa, V domains shown)
VH: B3 VH
VL: B1 VL with N31S, N33S
notes: IgG4pro(deltaK)/kappa; also called FFP104_Var4
B10: PG102_Var10 (antibody, human IgG4 S228P, kappa, V domains shown)
VH: B2 VH with Q16E, L20I, I48M, N60S, P61T, L82M
VL: B1 VL with N31D, N33Q
notes: IgG4pro(deltaK)/kappa; also called FFP104_Var10
B11: PG102_Var9 (antibody, human IgG4 S228P, kappa, V domains shown)
VH: B1 VH with K3Q, N83S, R86T, T87A, D88A, M92V, T108L
VL: B1 VL with N31D, N33Q
notes: IgG4pro(deltaK)/kappa; also called FFP104_Var9
B12: PG102_Var13 (antibody, human IgG4 S228P, kappa, V domains shown)
VH: B1 VH with K3Q, N83S, R86T, T87A, D88A, M92V, T108L
VL: B1 VL with E1D, L2I, Q3V, L4M, L15P, N31S, N33Q, R44K
notes: IgG4pro(deltaK)/kappa; also called FFP104_Var13
B13: PG102_Var6 (antibody, human IgG4 S228P, kappa, V domains shown)
VH: B2 VH with Q16E, L20I, I48M, N60S, P61T, L82M
VL: B1 VL with N31S, N33Q
notes: IgG4pro(deltaK)/kappa; also called FFP104_Var6
B14: PG102_Var12 (antibody, human IgG4 S228P, kappa, V domains shown)
VH: B3 VH
VL: B1 VL with N31D, N33Q
notes: IgG4pro(deltaK)/kappa; also called FFP104_Var12
B15: PG102_Var2 (antibody, human IgG4 S228P, kappa, V domains shown)
VH: B2 VH with Q16E, L20I, I48M, N60S, P61T, L82M
VL: B1 VL with N31S, N33S
notes: IgG4pro(deltaK)/kappa; also called FFP104_Var2
B16: PG102_Var16 (antibody, human IgG4 S228P, kappa, V domains shown)
VH: B3 VH
VL: B1 VL with E1D, L2I, Q3V, L4M, L15P, N31S, N33Q, R44K
notes: IgG4pro(deltaK)/kappa; also called FFP104_Var16
B17: PG102_Var1 (antibody, human IgG4 S228P, kappa, V domains shown)
VH: B1 VH with K3Q, N83S, R86T, T87A, D88A, M92V, T108L
VL: B1 VL with N31S, N33S
notes: IgG4pro(deltaK)/kappa; also called FFP104_Var1

T1 sequence (P25942 21-193 limits assumed): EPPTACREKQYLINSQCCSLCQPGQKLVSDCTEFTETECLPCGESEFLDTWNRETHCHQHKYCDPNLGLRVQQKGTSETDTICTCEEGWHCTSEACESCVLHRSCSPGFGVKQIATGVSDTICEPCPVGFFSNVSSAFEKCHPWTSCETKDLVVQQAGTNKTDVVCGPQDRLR

The first assay addresses T1, recombinant CD40 (human, UniProt P25942 21-193, limits assumed).
T1 construct: the ELISA method itself names no species or construct; also called antigen CD40
The assay is described as follows: ELISA, plates coated with recombinant CD40, AP-conjugated anti-human kappa detection; effective concentration in supernatant read on a PG102 reference curve. The method, then: Binding of the antibody variants to CD40 was measured using an ELISA based assay based on UKSL-2057. Microtiter plates were coated with recombinant CD40 before the antibody variants were added and detected using an alkaline phosphatase conjugated antihuman kappa IgG.
Samples were then prepared and analyzed The results were converted to effective concentrations in the clarified supernatant […] This assay provides an assessment of the affinity of the antibody variants for CD40.
For orientation: ELISA stands for enzyme-linked immunosorbent assay.
B1: the CD40 binding worked out at 14.6 mg/L.

For the molecule B2, the CD40 binding is 33.6 mg/L.

For B3, the CD40 binding was determined as 23.5 mg/L.

Take B4: the CD40 binding was 34.9 mg/L.

As for B5, the CD40 binding was 23 mg/L.

For B6, the CD40 binding stood at 29.4 mg/L.

In the case of B7, the CD40 binding was found to be 38.5 mg/L.

As to B8, the CD40 binding was 12.6 mg/L.

With B9, the CD40 binding amounted to 29.5 mg/L.

As to B10, the CD40 binding stood at 4.35 mg/L.

With B11, the CD40 binding came to 17 mg/L.

As to B12, the CD40 binding was determined as 22.8 mg/L.

With B13, the CD40 binding worked out at 39.7 mg/L.

In the case of B14, the CD40 binding worked out at 2.35 mg/L.

For B15, the CD40 binding was 30.1 mg/L.

With B16, the CD40 binding was determined as 20.7 mg/L.

Take B17: the CD40 binding stood at 34.9 mg/L.

In another assay the target is CD40 on peripheral blood mononuclear cells (PBMC) from healthy donors (human, UniProt P25942 21-277). Nature of the assay: cell-based or functional assay.
Chain of CD40 on peripheral blood mononuclear cells (PBMC) from healthy donors (P25942 21-277): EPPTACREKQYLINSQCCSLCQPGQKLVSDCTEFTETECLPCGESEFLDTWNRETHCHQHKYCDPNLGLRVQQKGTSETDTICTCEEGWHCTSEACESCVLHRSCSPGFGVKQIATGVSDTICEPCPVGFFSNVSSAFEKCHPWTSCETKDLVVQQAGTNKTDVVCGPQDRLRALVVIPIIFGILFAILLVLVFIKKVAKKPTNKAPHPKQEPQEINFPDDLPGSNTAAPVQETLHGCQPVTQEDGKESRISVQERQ
In the case of B1, the “Percentage inhibition of TNF secretion at 1 ng/ml” value (“Percentage inhibition … at 1 ng/ml” below) was -5.2% and the “Percentage inhibition of TNF secretion at 10 ng/ml” value (“Percentage inhibition … at 10 ng/ml” below) worked out at 81.2%.

As for B4, the “Percentage inhibition … at 1 ng/ml” value turned out to be 22.5% and the “Percentage inhibition … at 10 ng/ml” value was 87.4%.

With B5, the “Percentage inhibition … at 1 ng/ml” value was 21.8% and the “Percentage inhibition … at 10 ng/ml” value worked out at 85.5%.

For B7, the “Percentage inhibition … at 1 ng/ml” value worked out at 16.1% and the “Percentage inhibition … at 10 ng/ml” value was 88.5%.

Regarding B10, the “Percentage inhibition … at 1 ng/ml” value worked out at 14.4% and the “Percentage inhibition … at 10 ng/ml” value is 75.8%.

Regarding B13, the “Percentage inhibition … at 1 ng/ml” value stood at 16.6% and the “Percentage inhibition … at 10 ng/ml” value worked out at 86%.

Consider B15, for which the “Percentage inhibition … at 1 ng/ml” value was found to be 20.2% and the “Percentage inhibition … at 10 ng/ml” value came out at 87.2%.

In the case of B17, the “Percentage inhibition … at 1 ng/ml” value was -0.9% and the “Percentage inhibition … at 10 ng/ml” value stood at 81.8%.
